Data on 26 molecules can be found in patent US20090111745A1 (DOMANTIS, published 2009).

For assay [1], the target named is T1, human serum albumin (human, UniProt P02768 25-609).
T1 construct: also called HSA; HAS
Kind of assay: BIACORE SPR, albumin on a CM5 chip, dAb in solution.
Description: (§1) dAbs that bound serum albumin on a BIACORE chip (Biacore AB) were then further analysed to obtain information on affinity. The analysis was performed using a CM5 chip (carboxymethylated dextran matrix) that was coated with serum albumin. Flow cell 1 was an uncoated, blocked negative control, flow cell 2 was coated with HSA, flow cell 3 was coated with RSA and flow cell 4 was coated with MSA. The serum albumins were immobilised in acetate buffer pH 5.5 using the BIACORE coating wizard which was programmed to aim for 500 resonance units (RUs) of coated material. Each dAb of interest was expressed in the periplasm of E. coli on a 200 mL-500 mL scale and purified from the supernatant using batch absorption to protein A-streamline affinity resin (Amersham, UK) for the VH_{^S} and to protein L-agarose affinity resin (Affitech, Norway) for the Vκs followed by elution with glycine at pH 2.2 and buffer exchange to PBS. A range of concentrations of dAb were prepared (in the range 5 nM to 5 μM) by dilution into BIACORE HBS-EP buffer and flowed across the BIACORE chip.

For assay [2], the target named is T2, mouse serum albumin (mouse, UniProt P07724 25-608).
T2 construct: also called MSA
Kind of assay: table of affinities (KD); BIACORE on serum albumin-coated chip according to Example 1.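 Note: surface plasmon resonance with dAbs flowed over a chip carrying human, rat or mouse serum albumin, blocked uncoated flow cell as reference, KD from on- and off-rate curve fits.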
Description: as §1

The target in assay [3] is T1, human serum albumin. The description is as above.
Description: as §1
Assay [4] deals with T3, rat serum albumin (rat, UniProt P02770 25-608).
T3 construct: also called RSA
The assay is described as above.
Description: as §1

For assay [5], the target named is T1, human serum albumin. Description: BIACORE SPR screen, column 'Biacore binding'.
Excerpt: (§2) If a significant proportion of the clones in one of the selections were positive in the phage ELISA, then DNA from this selection was cloned into an expression vector for production of soluble dAb, and individual colonies were picked. […] Clones were then sequenced and unique dAb sequences identified.
The target of assay [6] is T1, human serum albumin. Description: phage display selection on albumin (figure legend).
In assay [7] the target is T3, rat serum albumin. Description: affinity (KD) for rat serum albumin; method not stated in the table (BIACORE SPR in Example 1).
The target in assay [8] is T2, mouse serum albumin. Kind of assay: BIACORE SPR screen, column 'Biacore binding'.
Excerpt: as §2
Assay [9] concerns the target T3, rat serum albumin. Kind of assay: BIACORE SPR screen, column 'Biacore binding'.
Excerpt: as §2
The target in assay [10] is T3, rat serum albumin. Kind of assay: phage display selection on albumin (figure legend).

B1: DOM7h-23 (other)
VH: EVQLLESGGGLVQPGGSLRLSCAASGFTFYDYNMSWVRQAPGKGLEWVSTITHTGGVTYYADSVKGRFTISRDNSKNTLYLQMNSLRAEDTAVYYCAKQNPSYQFDYWGQGTLVTVSS
For the molecule B1, the dissociation constant Kd with human serum albumin [1] is 500 to 5000 nM; with human serum albumin [3], 900 nM. Further, the binding result with mouse serum albumin [2] and in the assay with rat serum albumin [4] was “no binding” in each case.

B2: DOM7h-24 (other)
VH: EVQLLESGGGLVQPGGSLRLSCAASGFTFHRYSMSWVRQAPGKGLEWVSTILPGGDVTYYADSVKGRFTISRDNSKNTLYLQMNSLRAEDTAVYYCAKQTPDYMFDYWGQGTLVTVSS
B2: the binding result with human serum albumin [5] was “binds”.

B3: DOM7h-26 (other)
VH: EVQLLESGGGLVQPGGSLRLSCTASGFTFDEYNMSWVRQAPGKGLEWVSTILPHGDRTYYADSVKGRFTISRDNSKNTLYLQMNSLRAEDTAVYYCAKQDPLYRFDYWGQGTLVTVSS
As to B3, the figures for the Kd in the assay with human serum albumin [1] and with human serum albumin [3] were 100 to 500 nM and 300 nM, respectively. Moreover, the binding result in the assay with mouse serum albumin [2] and in the assay with rat serum albumin [4] was “no binding” throughout.

B4: DOM7h-27 (other)
VH: EVQLLESGGGLVQPGGSLRLSCAASGFTFSDYRMSWVRQAPGKGLEWVSTIISNGKFTYYADSVKGRFTISRDNSKNTLYLQMNSLRAEDTAVYYCAKQDWMYMFDYWGQGTLVTVSS
Take B4: the binding result with human serum albumin [5] is “binds”.

B5: DOM7h-3 (other)
VL: DIQMTQSPSSLSASVGDRVTITCRASQWIDTGLAWYQQKPGKAPRLLIYNVSRLQSGVPSRFSGSGSGTDFTLTISSLQPEDFATYYCQQYWGSPTTFGQGTKVEIKR
Regarding B5, in the assay with human serum albumin [6], the binding result is “binds”.

B6: DOM7h-22 (other)
VH: EVQLLESGGGLVQPGGSLRLSCAASGFTFSKYWMSWVRQAPGKGLEWVSSIDFMGPHTYYADSVKGRFTISRDNSKNTLYLQMNSLRAEDTAVYYCAKGRTSMLPMKGKFDYWGQGTLVTVSS
As to B6, the binding result in the assay with mouse serum albumin [2] and with rat serum albumin [4] was “no binding” throughout. In addition, in the assay with human serum albumin [3], the Kd is 60 nM.

B7: DOM7r-27 (other)
VH: EVQLLESGGGLVQPGGSLRLSCAASGFTFWPYTMSWVRQAPGKGLEWVSTISPFGSTTYYADSVKGRFTISRDNSKNTLYLQMNSLRAEDTAVYYCAKSDVLKTGLDGFDYWGQGTLVTVSS
Regarding B7, the dissociation constant (Kd) with mouse serum albumin [2] and with rat serum albumin [7] was 250 nM each time. The binding result with human serum albumin [3] was “no binding”.

B8: DOM7h-6 (other)
VL: DIQMTQSPSSLSASVGDRVTITCRASQSISSYLNWYQQKPGKAPTLLIYRLSVLQSGVPSRFSGSGSGTDFTLTISSLQPEDFATYYCQQTYNVPPTFGQGTKVEIKR
With B8, the binding result in the assay with human serum albumin [6] was “binds”.

B9: DOM7m-26 (other)
VL: DIQMTQSPSSLSASVGDRVTITCRASQSIYYHLKWYQQKPGKAPKLLIYKASTLQSGVPSRFSGSGSGTDFTLTISSLQPEDFATYYCQQVRKVPRTFGQGTKVEIKR
notes: also called MSA 26
B9: the Kd with mouse serum albumin [2] is 60 nM; in the assay with human serum albumin [3], greater than 5000 nM.

B10: DOM7m-16 (other)
VL: DIQMTQSPSSLSASVGDRVTITCRASQSIIKHLKWYQQKPGKAPKLLIYGASRLQSGVPSRFSGSGSGTDFTLTISSLQPEDFATYYCQQGARWPQTFGQGTKVEIKR
notes: also called MSA16
In the case of B10, the Kd in the assay with mouse serum albumin [2] was 50 nM; in the assay with human serum albumin [3] it was greater than 5000 nM.

B11: DOM7h-25 (other)
VH: EVQLLESGGGLVQPGGSLRLSCAASGFTFWKYNMAWVRQAPGKGLEWVSTILGEGNNTYYADSVKGRFTISRDNSKNTLYLQMNSLRAEDTAVYYCAKTMDYKFDYWGQGTLVTVSS
For the molecule B11, the binding result with human serum albumin [5] is “binds”.

B12: DOM7h-4 (other)
VL: DIQMTQSPSSLSASVGDRVTITCRASQEIYSWLAWYQQRPGKAPKLLIYNASHLQSGVPSRFSGSGSGTDFTLTISSLQPEDFATYYCQQVIGDPVTFGQGTKVEIKR
B12: the binding result in the assay with human serum albumin [6] is given as “binds”.

B13: DOM7r-7 (other)
VL: DIQMTQSPSSLSASVGDRVTITCRASQYIGRYLRWYQQKPGKAPKLLIYDSSVLQSGVPSRFSGSGSGTDFTLTISSLQPEDFATYYCQQRYSSPYTFGQGTKVEIKR
In the case of B13, the binding result with mouse serum albumin [8] and with rat serum albumin [9] was “binds” each time.

B14: DOM7r-3 (other)
VL: DIQMTQSPSSLSASVGDRVTITCRASQYIGRYLRWYQQKPGKAPKLLIYDSSVLQSGVPSRFSGSGSGTDFTLTISSLQPEDFATYYCQQRYMQPFTFGQGTKVEIKR
On to B14, for which the results for the equilibrium dissociation constant (Kd) in the assay with mouse serum albumin [2] and in the assay with rat serum albumin [7] were greater than 5000 nM and 12 nM, respectively. Besides, the binding result in the assay with human serum albumin [3] is listed as “no binding”.

B15: DOM7r-5 (other)
VL: DIQMTQSPSSLSASVGDRVTITCRASQYISRQLRWYQQKPGKAPRLLIYGASVLQSGIPSRFSGSGSGTDFTLTISSLQPEDFATYYCQQRYITPYTFGQGTKVEVKR
With B15, the binding result with rat serum albumin [9] is “binds”.

B16: DOM7r-14 (other)
VL: DIQMTQSPSSLSASVGDRVTITCRASQHIHRELRWYQQKPGKAPKLLIYQASRLQSGVPSRFSGSGSGTDFTLTISSLQPEDFATYYCQQRYRVPYTFGQGTKVEIKR
For the molecule B16, the binding result in the assay with human serum albumin [3] was “no binding”. This molecule also showed a Kd in the assay with rat serum albumin [4] of 50 nM.

B17: DOM7r-8 (other)
VL: DIQMTQSPSSLSASVGDRVTITCRASQWIHRQLKWYQQKPGKAPKLLIYYASILQSGVPSRFSGSGSGTDFTLTISSLQPEDFATYYCQQTFSKPSTFGQGTKVEIKR
Regarding B17, the dissociation constant Kd with mouse serum albumin [2] worked out at 40 nM; in the assay with rat serum albumin [4], 20 nM. Also, the binding result with human serum albumin [3] is “no binding”.

B18: DOM7r-16 (other)
VL: DIQMTQSPSSLSASVGDRVTITCRASQKIYKNLRWYQQKPGKAPKLLIYNSSILQSGVPSRFSGSGSGTDFTLTISSLQPEDFATYYCQQRYLSPYTFGQGTKVEIKR
For the molecule B18, the Kd with mouse serum albumin [2] and with rat serum albumin [7] was 1000 nM throughout. For the same molecule, the binding result with human serum albumin [3] was “no binding”.

B19: DOM7r-13 (other)
VL: DIQMTQSPSSLSASVGDRVTITCRASQHIHRELRWYQQKPGKAPKLLIYQASRLQSGVPSRFSGSGSGTDFTLTISSLQPEDFATYYCQQKYLPPYTFGQGTKVEIKR
As to B19, in the assay with human serum albumin [3], the binding result is given as “no binding”. The molecule further registered a Kd in the assay with rat serum albumin [4] of 80 nM.

B20: DOM7r-4 (other)
VL: DIQMTQSPSSLSASVGDRVTITCRASQWIGRYLRWYQQKPGKAPKLLIYNGSQLQSGVPSRFSGSGSGTDFTLTISSLQPEDFATYYCQQRYLQPYTFGQGTKVEIKR
As for B20, the binding result in the assay with mouse serum albumin [8] and with rat serum albumin [9] was “binds” throughout.

B21: DOM7r-19 (other)
VL: DIQMTQSPSSLSASVGDRVTITCRASQWIYRHLRWYQQKPGKAPKLLIYDASRLQSGVPTRFSGSGSGTDFTLTISSLQPEDFATYYCQQTHNPPKTFGQGTKVEIKR
As for B21, in the assay with rat serum albumin [10], the binding result is on record as “binds”.

B22: DOM7r-18 (other)
VL: DIQMTQSPSSLSASVGDRVTITCRASQWIYKSLGWYQQKPGKAPKLLIYQSSLLQSGVPSRFSGSGSGTDFTLTISSLQPEDFATYYCQQYHQMPRTFGQGTKVEIKR
On to B22, for which the binding result with rat serum albumin [10] is “binds”.

B23: DOM7h-2 (other)
VL: DIQMTQSPSSLSASVGDRVTITCRASQKIATYLNWYQQKPGKAPKLLIYRSSSLQSAVPSRFSGSGSGTVFTLTISSLQPEDFATYYCQQTYAVPPTFGQGTKVEIKR
As to B23, the Kd was 10 to 100 nM with human serum albumin [1], greater than 5000 nM in the assay with mouse serum albumin [2], 70 nM with human serum albumin [3] and greater than 5000 nM with rat serum albumin [4].

B24: DOM7r-17 (other)
VL: DIQMTQSPSSLSASVGDRVTITCRASQKIYNNLRWYQQKPGKAPKLLIYNTSILQSGVPSRFSGSGSGTDFTLTISSLQPEDFATYYCQQRWRAPYTFGQGTKVEIKR
On to B24, for which the binding result with rat serum albumin [10] was “binds”.

B25: DOM7h-21 (other)
VH: EVQLLESGGGLVQPGGSLRLSCAASGFTFDLYDMSWVRQAPGKGLEWVSSIVNSGVRTYYADSVKGRFTISRDNSKNTLYLQMNSLRAEDTAVYYCAKLNQSYHWDFDYWGQGTLVTVSS
B25: in the assay with human serum albumin [5], the binding result is on record as “binds”.

B26: DOM7r-15 (other)
VL: DIQMTQSPSSLSASVGDRVTITCRASQSIGRRLKWYQQKPGAAPRLLIYRTSWLQSGVPSRFSGSGSGTDFTLTISSLQPEDFATYYCQQTSQWPHTFGQGTKVEIKR
B26: the binding result with rat serum albumin [10] is “binds”.
